Measured values reported in PMC10353892.

Molecular target: barrier-to-autointegration factor (BAF) (UniProt Q9VLU0)
Assay: GFP affinity purification, mass spectrometry
Details: reference: GFP-Ote wild type; sites S50,S54

otefin (Ote; emerin) (from UniProt P20240) GFP-OteAA (S50A S54A)
binding against the reference: stronger
